Test results: US20180208661A1 (CSL, published 2018)
Changes are numbered by the printed parent chain.

Columns and labels:
Assay in all cases: affinity for IL-3Rα extracellular domain protein; method not stated
[1] = target: T1, human IL-3Rα extracellular domain N232A (human, UniProt P26951 19-305)
T1 sequence: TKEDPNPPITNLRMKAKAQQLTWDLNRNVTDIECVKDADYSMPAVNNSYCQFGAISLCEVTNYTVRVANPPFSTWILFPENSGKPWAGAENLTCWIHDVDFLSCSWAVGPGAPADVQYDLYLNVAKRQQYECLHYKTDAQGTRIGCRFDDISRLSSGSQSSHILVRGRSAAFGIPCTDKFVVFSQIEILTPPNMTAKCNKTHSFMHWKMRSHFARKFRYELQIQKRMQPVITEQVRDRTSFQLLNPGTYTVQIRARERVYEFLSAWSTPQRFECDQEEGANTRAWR

[2] = target: T2, human IL-3Rα extracellular domain N232T (human, UniProt P26951 19-305)
T2 sequence: T1 sequence with A214T

[3] = target: T3, human IL-3Rα extracellular domain V277A (human, UniProt P26951 19-305)
T3 sequence: T1 sequence with A214N, V259A

[4] = target: T4, human IL-3Rα extracellular domain V277I (human, UniProt P26951 19-305)
T4 sequence: T1 sequence with A214N, V259I

[5] = target: T5, human IL-3Rα extracellular domain Y278F (human, UniProt P26951 19-305)
T5 sequence: T1 sequence with A214N, Y260F

[6] = target: T6, wild type human IL-3Rα extracellular domain (human, UniProt P26951 19-305)
T6 construct: also called huIL-3Rα WT; WT
T6 sequence: T1 sequence with A214N

[7] = target: T7, human IL-3Rα extracellular domain E51A (human, UniProt P26951 19-305)
T7 sequence: T1 sequence with E33A, A214N

[8] = target: T8, human IL-3Rα extracellular domain E51Q (human, UniProt P26951 19-305)
T8 sequence: T1 sequence with E33Q, A214N

[9] = target: T9, human IL-3Rα extracellular domain V53A (human, UniProt P26951 19-305)
T9 sequence: T1 sequence with V35A, A214N

[10] = target: T10, human IL-3Rα extracellular domain S59A (human, UniProt P26951 19-305)
T10 sequence: T1 sequence with S41A, A214N

[11] = target: T11, human IL-3Rα extracellular domain P61A (human, UniProt P26951 19-305)
T11 sequence: T1 sequence with P43A, A214N

- Kd [1]: 2040 nM
- Kd [2]: 358 nM
- Kd [3]: 219 nM
- Kd [4]: 33 nM
- Kd [5]: 1860 nM
- Kd [6]: 125 nM
- Kd [7]: 207 nM
- Kd [8]: 213 nM
- Kd [9]: 588 nM
- Kd [10]: 262 nM
- Kd [11]: 176 nM
B1: human IL-3 (hIL-3) (ligand)
chain: APMTQTTPLKTSWVNCSNMIDEIITHLKQPPLPLLDFNNLNGEDQDILMENNLRRPNLEAFNRAVKSLQNASAIESILKNLLPCLPLATAAPTRHPIHIKDGDWNEFRRKLTFYLKTLENAQAQQTTLSLAIF
